Assay results reported in PMC7058304 (PLoS ONE, 2020).

B1: mAb23 (analog of cemiplimab) (antibody, V domains shown)
VH: EVQLLESGGVLVQPGGSLRLSCAASGFTFSNFGMTWVRQAPGKGLEWVSGISGGGRDTYFADSVKGRFTISRDNSKNTLYLQMNSLKGEDTAVYYCVKWGNIYFDYWGQGTLVTVSS
VL: DIQMTQSPSSLSASVGDSITITCRASLSINTFLNWYQQKPGKAPNLLIYAASSLHGGVPSRFSGSGSGTDFTLTIRTLQPEDFATYYCQQSSNTPFTFGPGTVVDFR
notes: VH; IgG4 heavy-chain constant region with stabilizing 226CPPC hinge; VL; IgG4 analog; source: HEK293 suspension cells, cotransfected, purified (Protein A)
B2: mAb03 (analog of tislelizumab) (antibody, V domains shown)
VH: QVQLQESGPGLVKPSETLSLTCTVSGFSLTSYGVHWIRQPPGKGLEWIGVIYADGSTNYNPSLKSRVTISKDTSKNQVSLKLSSVTAADTAVYYCARAYGNYWYIDVWGQGTTVTVSS
VL: DIVMTQSPDSLAVSLGERATINCKSSESVSNDVAWYQQKPGQPPKLLINYAFHRFTGVPDRFSGSGYGTDFTLTISSLQAEDVAVYYCHQAYSSPYTFGQGTKLEIK
notes: as for B1
B3: mAb16 (analog of dostarlimab) (antibody, V domains shown)
VH: EVQLLESGGGLVQPGGSLRLSCAASGFTFSSYDMSWVRQAPGKGLEWVSTISGGGSYTYYQDSVKGRFTISRDNSKNTLYLQMNSLRAEDTAVYYCASPYYAMDYWGQGTTVTVSS
VL: DIQLTQSPSFLSAYVGDRVTITCKASQDVGTAVAWYQQKPGKAPKLLIYWASTLHTGVPSRFSGSGSGTEFTLTISSLQPEDFATYYCQHYSSYPWTFGQGTKLEIK
notes: as for B1

biological target: T1, Recombinant purified human PD-1 protein, residues Leu25-Thr168, with a C-terminal 6-His tag (human, UniProt Q15116); assay: SPR; Biacore 8K, flat chips (average of C1 and CMD-P); mAbs captured on goat anti-human IgG Fc; PD-1 His-tagged monomer analyte 0.4-100 nM; 25 C; HBS-EP+ pH 7.4; 1:1 Langmuir fit with mass transport; apparent; settings: both partners purified
T1 construct: programmed cell death protein 1 (PD-1), human, residues Leu25-Thr168; monomer; the results call it wild-type or full length PD-1 against the P35-Q167 fragment; also called PD-1-His; PD-1 His-tagged monomer; source: bought: R&D Systems; not shown: His6, C-terminal, kept
T1 sequence (Q15116 25-168): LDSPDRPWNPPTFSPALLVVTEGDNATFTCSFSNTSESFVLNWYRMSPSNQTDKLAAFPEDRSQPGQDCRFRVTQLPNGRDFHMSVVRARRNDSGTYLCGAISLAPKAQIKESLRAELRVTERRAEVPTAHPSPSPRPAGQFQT

Kd [nM] | Binder
0.82 | B1
0.13 | B2
0.87 | B3

biological target: T1, Recombinant purified human PD-1 …; assay: KinExA equilibrium; fixed mAb orientation: PD-1-His monomer titrated (0.1 pM-1.2 uM) into fixed mAb, equilibrated up to 64 h; free mAb captured on beads coated with Fc-fused PD-1; about 23 C; PBS pH 7.4 + 0.05% azide + 0.01% BSA; N-curve analysis; apparent; settings: both partners purified

Kd [nM] | Binder
0.22 | B1
0.038 | B2
0.2 | B3

biological target: T2, biotinylated His-tagged PD-1 (Homo sapiens, UniProt Q15116, biotin); assay: MSD solution equilibrium titration; 100 pM biotinylated His-tagged PD-1 titrated with mAb (top 100, 50 or 10 nM binding sites), 18 h at room temperature; free antigen captured on mAb-coated MSD plates; relative KD; settings: both partners purified
T2 construct: PD-1, His-tagged, biotinylated, used in the MSD experiments; probably the R&D Systems Leu25-Thr168 protein after biotinylation
T2 sequence (Q15116 whole entry, looked up, tested part not stated): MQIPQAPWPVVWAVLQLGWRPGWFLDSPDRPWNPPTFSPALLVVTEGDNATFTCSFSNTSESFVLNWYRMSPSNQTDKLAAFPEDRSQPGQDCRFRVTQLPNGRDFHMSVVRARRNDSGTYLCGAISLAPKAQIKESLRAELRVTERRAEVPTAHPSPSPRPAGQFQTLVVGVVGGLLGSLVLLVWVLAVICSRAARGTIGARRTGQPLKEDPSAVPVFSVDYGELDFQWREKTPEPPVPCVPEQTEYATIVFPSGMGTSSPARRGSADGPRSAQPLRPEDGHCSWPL

Kd [nM] | Binder
0.13 | B1
0.024 | B2
0.18 | B3

biological target: T1, Recombinant purified human PD-1 …; assay: SPR; Biacore 8K, 3D-hydrogel chips (average of CM5 and CMD-200M); mAbs captured on goat anti-human IgG Fc; PD-1 His-tagged monomer analyte 0.4-100 nM; 25 C; HBS-EP+ pH 7.4; 1:1 Langmuir fit with mass transport; apparent; settings: both partners purified

Kd [nM] | Binder
1.9 | B1
0.26 | B2
1.7 | B3

biological target: T1, Recombinant purified human PD-1 …; assay: SPR; Carterra LSA, CMD-P (flat) chip; mAbs captured on goat anti-human IgG Fc in a 384-spot array; PD-1-His analyte 0.5-1000 nM, 5 min association, 20 min dissociation; HBS-ET + 0.5 mg/ml BSA; 1:1 Langmuir fit; mean of spots; apparent; settings: both partners purified

Kd [nM] | koff [s⁻¹] | kon [M⁻¹ s⁻¹] | Binder
1.5 | 0.00028 | 190000 | B1
< 0.099 | < 4.3e-05 | 430000 | B2
1.6 | 0.00039 | 240000 | B3
